Patent publication US20180155451A1 (published 2018)

B1: GpH7-A5/GpH7-B3 variant G236_03V/GpL16-k0 (antibody, human IgG1, kappa)
heavy 1: not shown
heavy 2: not shown
light: DIVMTQSPLSLPVTPGEPASISCQASESLVHSNRNTYLHWYLQKPGQSPQLLIYKVSNRFSGVPDRFSGSGSGTDFTLKISRVEAEDVGVYYCSQNTHVPPTFGQGTKVEIERTVAAPSVFIFPPSDEQLKSGTASVVCLLNNFYPREAKVQWKVDNALQSGNSQESVTEQDSKDSTYSLSSTLTLSKADYEKHKVYACEVTHQGLSSPVTKSFNRGEC
notes: He Ab: alteration in the GpH7-B3 H chain only; also called He Ab
B2: GpH7-A5/GpH7-B3 variant G236_04F/GpL16-k0 (antibody, human IgG1, kappa)
heavy 1: not shown
heavy 2: not shown
light: B1 light
notes: as for B1
B3: GpH7-A5/GpH7-B3 variant G236_05P/GpL16-k0 (antibody, human IgG1, kappa)
heavy 1: not shown
heavy 2: not shown
light: B1 light
notes: as for B1
B4: GpH7-A5/GpH7-B3 variant G236_06M/GpL16-k0 (antibody, human IgG1, kappa)
heavy 1: not shown
heavy 2: not shown
light: B1 light
notes: as for B1
B5: GpH7-A5/GpH7-B3 variant G236_07I/GpL16-k0 (antibody, human IgG1, kappa)
heavy 1: not shown
heavy 2: not shown
light: B1 light
notes: as for B1
B6: GpH7-A5/GpH7-B3 variant G236_08L/GpL16-k0 (antibody, human IgG1, kappa)
heavy 1: not shown
heavy 2: not shown
light: B1 light
notes: as for B1
B7: GpH7-A5/GpH7-B3 variant G236_12R/GpL16-k0 (antibody, human IgG1, kappa)
heavy 1: not shown
heavy 2: not shown
light: B1 light
notes: as for B1
B8: GpH7-A5/GpH7-B3 variant G236_13S/GpL16-k0 (antibody, human IgG1, kappa)
heavy 1: not shown
heavy 2: not shown
light: B1 light
notes: as for B1
B9: GpH7-A5/GpH7-B3 variant G236_14T/GpL16-k0 (antibody, human IgG1, kappa)
heavy 1: not shown
heavy 2: not shown
light: B1 light
notes: as for B1
B10: GpH7-A5/GpH7-B3 variant G236_15Y/GpL16-k0 (antibody, human IgG1, kappa)
heavy 1: not shown
heavy 2: not shown
light: B1 light
notes: as for B1
B11: GpH7-A5/GpH7-B3 variant G236_16H/GpL16-k0 (antibody, human IgG1, kappa)
heavy 1: not shown
heavy 2: not shown
light: B1 light
notes: as for B1
B12: GpH7-A5/GpH7-B3 variant G236_19Q/GpL16-k0 (antibody, human IgG1, kappa)
heavy 1: not shown
heavy 2: not shown
light: B1 light
notes: as for B1
B13: GpH7-A5/GpH7-B3 variant G236_20W/GpL16-k0 (antibody, human IgG1, kappa)
heavy 1: not shown
heavy 2: not shown
light: B1 light
notes: as for B1
B14: GpH7-A5/GpH7-B3 variant G237_03V/GpL16-k0 (antibody, human IgG1, kappa)
heavy 1: not shown
heavy 2: not shown
light: B1 light
notes: as for B1
B15: GpH7-A5/GpH7-B3 variant G237_05P/GpL16-k0 (antibody, human IgG1, kappa)
heavy 1: not shown
heavy 2: not shown
light: B1 light
notes: as for B1
B16: GpH7-A5/GpH7-B3 variant G237_14T/GpL16-k0 (antibody, human IgG1, kappa)
heavy 1: not shown
heavy 2: not shown
light: B1 light
notes: as for B1
B17: GpH7-A5/GpH7-B3 variant G237_16H/GpL16-k0 (antibody, human IgG1, kappa)
heavy 1: not shown
heavy 2: not shown
light: B1 light
notes: as for B1
B18: GpH7-A5/GpH7-B3 variant L234_01G/GpL16-k0 (antibody, human IgG1, kappa)
heavy 1: not shown
heavy 2: not shown
light: B1 light
notes: as for B1
B19: GpH7-A5/GpH7-B3 variant L234_02A/GpL16-k0 (antibody, human IgG1, kappa)
heavy 1: not shown
heavy 2: not shown
light: B1 light
notes: as for B1
B20: GpH7-A5/GpH7-B3 variant L234_05P/GpL16-k0 (antibody, human IgG1, kappa)
heavy 1: not shown
heavy 2: not shown
light: B1 light
notes: as for B1
B21: GpH7-A5/GpH7-B3 variant L234_11K/GpL16-k0 (antibody, human IgG1, kappa)
heavy 1: not shown
heavy 2: not shown
light: B1 light
notes: as for B1
B22: GpH7-A5/GpH7-B3 variant L234_12R/GpL16-k0 (antibody, human IgG1, kappa)
heavy 1: not shown
heavy 2: not shown
light: B1 light
notes: as for B1
B23: GpH7-A5/GpH7-B3 variant L234_14T/GpL16-k0 (antibody, human IgG1, kappa)
heavy 1: not shown
heavy 2: not shown
light: B1 light
notes: as for B1
B24: GpH7-A5/GpH7-B3 variant L234_16H/GpL16-k0 (antibody, human IgG1, kappa)
heavy 1: not shown
heavy 2: not shown
light: B1 light
notes: as for B1
B25: GpH7-A5/GpH7-B3 variant L234_19Q/GpL16-k0 (antibody, human IgG1, kappa)
heavy 1: not shown
heavy 2: not shown
light: B1 light
notes: as for B1
B26: GpH7-A5/GpH7-B3 variant L235_01G/GpL16-k0 (antibody, human IgG1, kappa)
heavy 1: not shown
heavy 2: not shown
light: B1 light
notes: as for B1
B27: GpH7-A5/GpH7-B3 variant L235_11K/GpL16-k0 (antibody, human IgG1, kappa)
heavy 1: not shown
heavy 2: not shown
light: B1 light
notes: as for B1
B28: GpH7-A5/GpH7-B3 variant L235_13S/GpL16-k0 (antibody, human IgG1, kappa)
heavy 1: not shown
heavy 2: not shown
light: B1 light
notes: as for B1
B29: GpH7-A5/GpH7-B3 variant L235_14T/GpL16-k0 (antibody, human IgG1, kappa)
heavy 1: not shown
heavy 2: not shown
light: B1 light
notes: as for B1
B30: GpH7-A5/GpH7-B3 variant L235_16H/GpL16-k0 (antibody, human IgG1, kappa)
heavy 1: not shown
heavy 2: not shown
light: B1 light
notes: as for B1
B31: GpH7-A5/GpH7-B3 variant L235_18N/GpL16-k0 (antibody, human IgG1, kappa)
heavy 1: not shown
heavy 2: not shown
light: B1 light
notes: as for B1
B32: GpH7-A5/GpH7-B3 variant L235_19Q/GpL16-k0 (antibody, human IgG1, kappa)
heavy 1: not shown
heavy 2: not shown
light: B1 light
notes: as for B1
B33: GpH7-A5/GpH7-B3 variant P238_01G/GpL16-k0 (antibody, human IgG1, kappa)
heavy 1: not shown
heavy 2: not shown
light: B1 light
notes: as for B1
B34: GpH7-A5/GpH7-B3 variant P238_02A/GpL16-k0 (antibody, human IgG1, kappa)
heavy 1: not shown
heavy 2: not shown
light: B1 light
notes: as for B1

Biological target: T1, FcγRIIa R (FcγRIIa, allotype R: Arg at position 131) extracellular domain with C-terminal His tag (human, UniProt P12318 34-217)
T1 construct: extracellular domain; also called FcgRIIa R; 2aR; not shown: His tag at the C terminus
T1 sequence (looked up): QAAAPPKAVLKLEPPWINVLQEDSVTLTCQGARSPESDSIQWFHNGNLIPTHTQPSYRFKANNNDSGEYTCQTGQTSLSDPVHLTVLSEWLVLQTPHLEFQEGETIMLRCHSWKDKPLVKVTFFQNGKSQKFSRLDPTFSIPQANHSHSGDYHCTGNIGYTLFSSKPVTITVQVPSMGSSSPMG
Assay: ratio He/Con_2aR : He/Con_2b (FcgRIIa R over FcgRIIb), SPR Biacore
Protocol: The heterodimerized antibodies He Abs in which one of the H chains was introduced with an alteration were assayed for their binding activities to each activating FcγR and inhibitory FcγR according to the method described in Example 4. […] The activating FcγRs in FIGS. 26, 27, 28, and 29 are FcγRIa, FcγRIIa (R), FcγRIIa (H), and FcγRIIIa, respectively.
Analysis of interaction between objective antibody and the FcγR was carried out using Biacore T100 (GE Healthcare). HBS-EP+ (GE Healthcare) was used as the running buffer, and the measurement temperature was set to 25° C. Chips produced by immobilizing the antigen peptide by the amine coupling method to a Series S Sencor Chip CM5 (GE Healthcare), or alternatively, chips produced by allowing preliminarily biotinylated antigen peptides to interact with and immobilize onto a Series S Sensor Chip SA (certified) (GE Healthcare) were used. Antibodies of interest were captured onto an antigen peptide-immobilized chip, and allowed to interact to each FcγR diluted with running buffer. To regenerate and repeatedly use the chip, the antibodies captured on the chip were washed off by reacting 10 mM glycine-HCl, pH 1.5.

He_2aR/2b (IIaR/IIb) | Binder
2.6 | B1
1.35 | B2
2.52 | B3
1.26 | B4
2.81 | B5
2.45 | B6
3.55 | B7
1.41 | B8
1.78 | B9
1.48 | B10
2.24 | B11
1.59 | B12
1.34 | B13
1.52 | B14
1.4 | B15
1.43 | B16
1.35 | B17

He_2aR/2b (IIaR/IIb) | Binder
1.23 | B18
1.23 | B19
1.23 | B20
1.66 | B21
1.58 | B22
1.24 | B23
1.21 | B24
1.24 | B25
1.37 | B26
1.72 | B27
1.36 | B28
1.3 | B29
1.23 | B30
1.21 | B31
1.32 | B32
1.34 | B33
1.31 | B34

Biological target: T2, FcγRIIb extracellular domain with C-terminal His tag (human, UniProt P31994 43-217)
T2 construct: extracellular domain; also called FcgRIIb; 2b; not shown: His tag at the C terminus
T2 sequence (looked up): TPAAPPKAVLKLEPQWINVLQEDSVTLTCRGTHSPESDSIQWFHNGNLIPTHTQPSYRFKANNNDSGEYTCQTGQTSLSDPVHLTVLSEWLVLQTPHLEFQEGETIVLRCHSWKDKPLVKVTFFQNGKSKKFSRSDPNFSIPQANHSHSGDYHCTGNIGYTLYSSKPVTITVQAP
Assay: SPR Biacore, antibody captured, FcgR analyte; vs HeCon Ab GpH7-A5/GpH7-B3/GpL16-k0 = 100

He/Con_2b | Binder
35.3 control = 100 | B1
39.3 control = 100 | B2
19 control = 100 | B3
45.5 control = 100 | B4
31 control = 100 | B5
26.8 control = 100 | B6
6.8 control = 100 | B7
96.7 control = 100 | B8
57.8 control = 100 | B9
39.5 control = 100 | B10
27.9 control = 100 | B11
46.6 control = 100 | B12
58.2 control = 100 | B13
61.4 control = 100 | B14
24.6 control = 100 | B15
54.8 control = 100 | B16
55.2 control = 100 | B17

He/Con_2b | Binder
50.7 control = 100 | B18
64.9 control = 100 | B19
72.9 control = 100 | B20
16.2 control = 100 | B21
18.9 control = 100 | B22
62.5 control = 100 | B23
59.4 control = 100 | B24
60.3 control = 100 | B25
35.4 control = 100 | B26
6.3 control = 100 | B27
48.2 control = 100 | B28
46.8 control = 100 | B29
76.9 control = 100 | B30
54.9 control = 100 | B31
42.6 control = 100 | B32
56 control = 100 | B33
57.4 control = 100 | B34

Biological target: T1, FcγRIIa R (FcγRIIa, allotype R: Arg at …)
Assay: as above

He/Con_2aR | Binder
91.6 control = 100 | B1
53.1 control = 100 | B2
47.9 control = 100 | B3
57.3 control = 100 | B4
87.1 control = 100 | B5
65.8 control = 100 | B6
24.1 control = 100 | B7
136 control = 100 | B8
103 control = 100 | B9
58.6 control = 100 | B10
62.7 control = 100 | B11
74.2 control = 100 | B12
77.9 control = 100 | B13
93 control = 100 | B14
34.5 control = 100 | B15
78.6 control = 100 | B16
74.5 control = 100 | B17

He/Con_2aR | Binder
62.3 control = 100 | B18
79.6 control = 100 | B19
89.6 control = 100 | B20
26.8 control = 100 | B21
29.9 control = 100 | B22
77.5 control = 100 | B23
71.8 control = 100 | B24
75.1 control = 100 | B25
48.5 control = 100 | B26
10.8 control = 100 | B27
65.3 control = 100 | B28
60.7 control = 100 | B29
94.8 control = 100 | B30
66.5 control = 100 | B31
56.2 control = 100 | B32
75 control = 100 | B33
75.1 control = 100 | B34
